Test results published in US20100160262.

Target: enzymatically [3H] acetylated histone H3 peptide (amino acids 1-24), P68431

B1: human SIRT1 with a C-terminal FLAG tag (protein)
chain: MADEAALALQPGGSPSAAGADREAASSPAGEPLRKRPRRDGPGLERSPGEPGGAAPEREVPAAARGCPGAAAAALWREAEAEAAAAGGEQEAQATAAAGEGDNGPGLQGPSREPPLADNLYDEDDDDEGEEEEEAAAAAIGYRDNLLFGDEIITNGFHSCESDEEDRASHASSSDWTPRPRIGPYTFVQQHLMIGTDPRTILKDLLPETIPPPELDDMTLWQIVINILSEPPKRKKRKDINTIEDAVKLLQECKKIIVLTGAGVSVSCGIPDFRSRDGIYARLAVDFPDLPDPQAMFDIEYFRKDPRPFFKFAKEIYPGQFQPSLCHKFIALSDKEGKLLRNYTQNIDTLEQVAGIQRIIQCHGSFATASCLICKYKVDCEAVRGDIFNQVVPRCPRCPADEPLAIMKPEIVFFGENLPEQFHRAMKYDKDEVDLLIVIGSSLKVRPVALIPSSIPHEVPQILINREPLPHLHFDVELLGDCDVIINELCHRLGGEYAKLCCNPVKLSEITEKPPRTQKELAYLSELPPTPLHVSEDSSSPERTSPPDSSVIVTLLDQAAKSNDDLDVSESKGCMEEKPQEVQTSRNVESIAEQMENPDLKNVGSSTGEKNERTSVAGTVRKCWPNRVAKEQISRRLDGNQYLFLPPNRYIFHGAEVYSDSEDDVLSSSSCGSNSDSGTCQSPSLEEPMEDESEIEEFYNGLEDEPDVPERAGGAGFGTDGDDQEAINEAISVKQEVTDMNYPSNKS
standard histone deacetylase assay (radioactive, H3 peptide substrate): These enzymes also deacetylate histones as determined in a standard histone deacetylase assay
